US10034836B2, “Formulations of guanylate cyclase C agonists and methods of use” (SYNERGY PHARMACEUTICALS, INC., priority 2008, dated 2018)
Where a SMILES comes first, the peptide text is derived from it. Bridges are numbered along the chain shown (N, C = ends). Primed or numbered codes have the meaning given here. Where no end group is shown, it is not given here. [ ]: non-standard residue; d: D form. PEG3′ = polyethylene glycol such as aminoethyloxy-ethyloxy-acetic acid (AeeA), and polymers thereof

Key:
intestinal GC-C receptor = biological target: T1, intestinal GC-C receptor (Homo sapiens, UniProt P25092); assay: Cyclic GMP stimulation assay in T84 cells; format: cell-based; conditions: for ability to stimulate cGMP synthesis in T84 cells relative to SP-304: 30 min exposure (FIG. 5); for potency in cGMP stimulation assay relative to SP-339 (linaclotide): 30 min exposure (FIG. 6); for potency to stimulate cGMP synthesis in T84 cells relative to SP-333: peggylated analogs of SP-333, 30 min (FIG. 8)
T1 construct: confluent monolayers of T-84 cells in 24-well plates; host or cells: T84 human colon carcinoma cells
Text: FIG. 4: Biological activity of truncated peptides of 16-mer SP-304, as measured by stimulation of cGMP synthesis in T84 cells. SP-338 15-mer peptide is indentical to SP-304 except that it lacks Leu at the C-terminus. SP-327, SP-329 and SP-331 lack Leu at their C-termini relative to their corresponding parents, SP-326, SP-328 and SP-330, respectively. Data points shown are the average of duplicate measurements.
FIG. 5: Stimulation of cGMP synthesis in T84 cells by SP-304 and similar analogs. T84 cells were exposed to test peptides for 30 min and cell lysates were then used to determine intracellular cGMP levels. Data points shown are the average of triplicate measurements±SD.
FIG. 6: Stimulation of cGMP synthesis in T84 cells by SP-339 (linaclotide) and other linaclotide analogs. T84 cells were exposed to test peptides for 30 min and cell lysates were then used to determine intracellular cGMP levels. Data points shown are the average of triplicate measurements±SD.
FIG. 8: Stimulation of cGMP synthesis in T84 cells by the peggylated analogs of SP-333. T84 cells were exposed to the indicated peptides for 30 min and cell lysates were used to determine intracellular cGMP levels. Data points shown are the average of triplicate measurements±SD.
After the 30 min incubation, the medium was aspirated and the reaction was terminated by the addition of 3% perchloric acid. Following centrifugation and the addition of NaOH (0.1 N) to neutralize the pH, intracellular cGMP levels were determined in lysates using a cGMP ELISA kit (Cat. No. 581021; Cayman Chemical, Ann Arbor, Mich.). Peptide incubations were run in duplicate, and samples taken from each incubation were run as duplicates in the ELISA test.
The ability of the GCC agonist peptide to bind to and activate the intestinal GC-C receptor was tested using T84 human colon carcinoma cell line. Human T84 colon carcinoma cells were obtained from the American Type Culture Collection. Cells were grown in a 1:1 mixture of Ham's F-12 medium and Dulbecco's modified Eagle's medium (DMEM) supplemented with 10% fetal bovine serum, 100 U penicillin/ml, and 100 μg/ml streptomycin. The cells were fed fresh medium every third day and split at a confluence of approximately 80%.
Biological activity of the GCC agonist peptides was assayed as previously reported (Shailubhai, et al., Cancer Research 60, 5151-5157 (2000)). Briefly, the confluent monolayers of T-84 cells in 24-well plates were washed twice with 250 μl of DMEM containing 50 mM HEPES (pH 7.4), pre-incubated at 37° C. for 10 min with 250 μl of DMEM containing 50 mM HEPES (pH 7.4) and 1 mM isobutylmethylxanthine (IBMX), followed by incubation with GCC agonist peptides (0.1 nM to 10 µM) for 30 min. The medium was aspirated, and the reaction was terminated by the addition of 3% perchloric acid. Following centrifugation, and neutralization with 0.1 N NaOH, the supernatant was used directly for measurements of cGMP using an ELISA kit (Caymen Chemical, Ann Arbor, Mich.).
An additional strategy to render peptides more resistant towards digestion by digestive proteases is to peggylate them at the N- and C-terminus. The peptide SP-333 was peggylated with the aminoethyloxy-ethyloxy-acetic acid (Aeea) group at the C-terminus (SP-347) or at the N-terminus (SP-350) or at both termini (SP-343). Cyclic GMP synthesis in T84 cells was measured by the method as described above.

[1] = Stability in simulated intestinal fluid (SIF), biological activity by cGMP synthesis in T84 cells; format: in vitro ADME
Protocol: FIG. 2A: Biological activity of SP-304 incubated for varying lengths of time in simulated intestinal fluid (SIF). SP-304 samples were incubated for 0, 30, 60, 90, 150, and 300 min, respectively, and then tested for their ability to stimulate cGMP synthesis in T84 cells. The cGMP stimulation activity in the sample at 0 min of incubation time in SIF was taken as 100% biological activity. The activities of the other SP-304 incubation samples were calculated as the percentage of activity relative to that of the 0 min sample. Data points shown are the average of triplicate measurements±SD.
(§1) FIG. 7A: Biological activity of SP-333 incubated for varying lengths of time in simulated intestinal fluid (SIF). SP-333 samples incubated for 0, 5, 10, 30, 60, and 120 min, respectively, were tested for their ability to stimulate cGMP synthesis in T84 cells. The control sample marked as C120 was produced by incubating SP-333 with heat inactivated SIF for 120 min. Samples from the incubations were removed and heated at 95° C. for 5 min to inactivate digestive enzymes and then used to stimulate cyclic GMP synthesis in T84 cells. The cGMP stimulation activity in the sample at 0 min of incubation time in SIF was taken as 100% biological activity. The activities of the other SP-304 incubation samples were calculated as the percentage of activity relative to that of the 0 min sample. Data points shown are the average of triplicate measurements±SD.
as §1, with “FIG. 7B:” for “FIG. 7A:”, “of SP-332” for “of SP-333”, “incubating SP-332” for “incubating SP-333”
FIG. 7C: Biological activity of SP-304 incubated for varying lengths of time in simulated intestinal fluid (SIF). SP-304 samples incubated for 0, 10, and 60 min, respectively, were tested for their ability to stimulate cGMP synthesis in T84 cells. The control samples marked as C0 and C60 were produced by incubating SP-304 with heat inactivated SIF for 0 and 60 min, respectively. Samples from the incubations were removed and heated at 95° C. for 5 min to inactivate digestive enzymes and then used to stimulate cyclic GMP synthesis in T84 cells. The cGMP stimulation activity in the sample at 0 min of incubation time in SIF was taken as 100% biological activity. The activities of the other SP-304 incubation samples were calculated as the percentage of activity relative to that of the 0 min sample. […]
FIGS. 7G-1-7G-5: Incubation of SP-333 with SIF for 2, 6, 12 and 24 hrs. Effect of SIF digestion on the activity of SP-333 in T84 stimulation assay was determined (FIG. 7G-1) and samples were also analyzed by HPLC (FIGS. 7G2-5). […]
The stability of SP-304 was also evaluated after incubation with simulated intestinal fluid (SIF) by measuring its biological activity and by HPLC analyses (FIGS. 2A & 2B). […]

T1 sequence (P25092 24-1073): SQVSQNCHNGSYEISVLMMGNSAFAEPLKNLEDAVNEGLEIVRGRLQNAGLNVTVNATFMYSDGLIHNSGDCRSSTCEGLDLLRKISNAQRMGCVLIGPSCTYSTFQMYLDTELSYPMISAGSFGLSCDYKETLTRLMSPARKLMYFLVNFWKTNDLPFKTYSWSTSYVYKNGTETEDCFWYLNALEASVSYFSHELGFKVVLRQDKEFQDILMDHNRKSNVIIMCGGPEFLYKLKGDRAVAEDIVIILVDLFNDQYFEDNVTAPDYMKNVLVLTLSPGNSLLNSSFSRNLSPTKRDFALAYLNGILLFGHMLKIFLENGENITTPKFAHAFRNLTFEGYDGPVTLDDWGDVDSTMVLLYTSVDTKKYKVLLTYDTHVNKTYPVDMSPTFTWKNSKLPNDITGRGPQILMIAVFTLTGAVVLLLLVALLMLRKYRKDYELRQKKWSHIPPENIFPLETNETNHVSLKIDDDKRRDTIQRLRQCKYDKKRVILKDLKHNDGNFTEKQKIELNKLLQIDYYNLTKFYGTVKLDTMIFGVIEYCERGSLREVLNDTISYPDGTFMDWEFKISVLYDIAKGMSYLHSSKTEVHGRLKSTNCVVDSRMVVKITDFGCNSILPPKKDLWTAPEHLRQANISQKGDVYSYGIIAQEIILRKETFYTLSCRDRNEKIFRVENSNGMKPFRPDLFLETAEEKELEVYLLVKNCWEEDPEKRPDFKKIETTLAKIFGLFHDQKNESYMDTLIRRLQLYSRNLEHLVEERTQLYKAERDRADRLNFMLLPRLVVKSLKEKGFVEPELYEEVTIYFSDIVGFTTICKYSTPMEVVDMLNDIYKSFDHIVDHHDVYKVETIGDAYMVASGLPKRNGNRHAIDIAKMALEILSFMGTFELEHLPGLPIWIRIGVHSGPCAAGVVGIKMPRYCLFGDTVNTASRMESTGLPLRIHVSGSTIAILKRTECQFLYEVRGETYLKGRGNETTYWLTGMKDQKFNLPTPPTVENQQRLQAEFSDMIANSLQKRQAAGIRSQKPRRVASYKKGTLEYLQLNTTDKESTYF

| Compound | potency in cGMP stimulation assay relative to SP-339 (linaclotide) (intestinal GC-C receptor) | potency to stimulate cGMP synthesis in T84 cells relative to SP-333 (intestinal GC-C receptor) | further results |
| --- | --- | --- | --- |
| dAsn^1-dAsp^2-dGlu^3-Cys^4-Glu^5-Leu^6-Cys^7-Val^8-Asn^9-Val^10-Ala^11-Cys^12-Thr^13-Gly^14-Cys^15-dLeu^16 ([dN][dD][dE]CELCVNVACTGC[dL]; disulfide (positions not given here); also: disulfides, number and pairing not given here) [SP-335] |  |  | ability to stimulate cGMP synthesis in T84 cells relative to SP-304 (intestinal GC-C receptor): comparable ability |
| Asn^1-Phe^2-Cys^3-Cys^4-Glu^5-Ser^6-Cys^7-Cys^8-Asn^9-Pro^10-Ala^11-Cys^12-Thr^13-Gly^14-Cys^15-Tyr^16 (NFCCESCCNPACTGCY; disulfide 4-12, 7-15, 3-8) [SP-353] | more potent than SP-339 |  |  |
| dAsn^1-Asp^2-Glu^3-Cys^4-Glu^5-dLeu^6-Cys^7-Val^8-Asn^9-Val^10-Ala^11-Cys^12-Thr^13-Gly^14-Cys^15-dLeu^16 ([dN]DECE[dL]CVNVACTGC[dL]; ends and bridges not checked) [SP-337] |  |  | ability to stimulate cGMP synthesis in T84 cells relative to SP-304 (intestinal GC-C receptor): virtually complete loss of biological activity |
| CC(C)C[C@@H]1NC(=O)[C@H](CCC(=O)O)NC(=O)[C@@H](NC(=O)[C@H](CCC(=O)O)NC(=O)[C@H](CC(=O)O)NC(=O)[C@@H](N)CC(N)=O)CSSC[C@@H]2NC(=O)[C@H](C)NC(=O)[C@H](C(C)C)NC(=O)[C@H](CC(N)=O)NC(=O)[C@H](C(C)C)NC(=O)[C@H](CSSC[C@@H](C(=O)N[C@H](CC(C)C)C(=O)O)NC(=O)CNC(=O)[C@H]([C@@H](C)O)NC2=O)NC1=O [SP-332, Asn^1-Asp^2-Glu^3-Cys^4-Glu^5-Leu^6-Cys^7-Val^8-Asn^9-Val^10-Ala^11-Cys^12-Thr^13-Gly^14-Cys^15-dLeu^16] (H-NDECELCVNVACTGC[dL]-OH; disulfide 4-12, 7-15) |  |  | potency following incubation with SIF [1]: minor reduction in potency |
| PEG3-dAsn^1-Asp^2-Glu^3-Cys^4-Glu^5-Leu^6-Cys^7-Val^8-Asn^9-Val^10-Ala^11-Cys^12-Thr^13-Gly^14-Cys^15-dLeu^16 ([PEG3′][dN]DECELCVNVACTGC[dL]; ends and bridges not checked) [SP-350] |  | comparable to SP-333 |  |
| PEG3-dAsn^1-Asp^2-Glu^3-Cys^4-Glu^5-Leu^6-Cys^7-Val^8-Asn^9-Val^10-Ala^11-Cys^12-Thr^13-Gly^14-Cys^15-dLeu^16-PEG3 ([PEG3′][dN]DECELCVNVACTGC[dL][PEG3′]; ends and bridges not checked) [SP-343] |  | considerably less potent |  |
| dAsn^1-Asp^2-Glu^3-Cys^4-Glu^5-Leu^6-Cys^7-Val^8-Asn^9-Val^10-Ala^11-Cys^12-Thr^13-Gly^14-Cys^15-dLeu^16-PEG3 ([dN]DECELCVNVACTGC[dL][PEG3′]; ends and bridges not checked) [SP-347] |  | comparable to SP-333 |  |
| Asn^1-Asp^2-Glu^3-Cys^4-Glu^5-Leu^6-Cys^7-Val^8-Asn^9-Val^10-Ala^11-Cys^12-Thr^13-Gly^14-Cys^15 (NDECELCVNVACTGC) [SP-338] |  |  | biological activity retained relative to full length 16-mer SP-304 (cGMP synthesis in T84 cells) (intestinal GC-C receptor; peptide 1.0 μM, 30 min (FIG. 4)): about 80% |
| Cys^1-Cys^2-Glu^3-Tyr^4-Cys^5-Cys^6-Asn^7-Pro^8-Ala^9-Cys^10-Thr^11-Gly^12-Cys^13-dTyr^14 [SP-355] | considerably less potency |  |  |
| Asn^1-Phe^2-Cys^3-Cys^4-Glu^5-Phe^6-Cys^7-Cys^8-Asn^9-Pro^10-Ala^11-Cys^12-Thr^13-Gly^14-Cys^15-Tyr^16 (NFCCEFCCNPACTGCY; disulfide 4-12, 7-15, 3-8) [SP-354] | virtually identical to SP-339 |  |  |
